From the DeepSol protein solubility set

assay: soluble on expression in E. coli; label from the status in PepcDB or PDB records

Sequence | soluble on expression in E. coli
MSNRKLSPDKTQPIYAPNNAFLDECVRVEIINILPLKVLRPAVKESTKYHQILASIQDVGLVEPPAVTPAPGTSGQYFLLDGHLRIEVLKDLGELKVDCLVATDDDTYSYNKRTNRLSAVQSNKMIVRAMERGVSAERLGKALGLSPQTIRQRFRLLNGICAEVVALLGDTDCPANVFNLLRQMKPLRQIEAAELMIGNKNLSVLLAKALLAATPPDQLVMIKKPSQDHQVSAESMARLERELAALQMQIKTVEEDYGPDVLHLTVIKGYLTKLLANAAVVRWLARHQPEYLKEFQSIAELTELPWADNGPEDDLQSTTAEG | not soluble
DQLPGPVRVTVAGGGSARSAGESGFRRGGGRGARRGSDGGASDDDDDDGGGSGGGGGGRGFSTQGAGAKGGGSSGGSVQGIFHVKPYLEGRKCIDHGGEMVSRSAFERAGGSMMAKWYRSIKVLPEGVSLGKWLVSNGLP | not soluble
SSSEQKSQHCKPEEGVEAQEEALGLVGAQAPTTEEQEAAVSSSSPLVPGTLEEVPAAESAGPPQSPQGASALPTTISFTCWRQPNEGSSSQEEEGPSTSPDAESLFREALSNKVDELAHFLLRKYRAKELVTKAEMLERVIKNYKRCFPVIFGKASESLKMIFGIDVKEVDPTSNTYTLVTCLGLSYDGLLGNNQIFPKTGLLIIVLGTIAMEGDSASEEEIWEELGVMGVYDGREHTVYGEPRKLLTQDWVQENYLEYRQVPGSNPARYEFLWGPRALAETSYVKVLEHVVRVNARVRIAYPSLREAALLEEEEGV | soluble
MGHHHHHHSHMTDPSKLAVAVVCSSNMNRSMEAHNFLAKKGFNVRSYGTGERVKLPGMAFDKPNVYEFGTKYEDIYRDLESKDKEFYTQNGLLHMLDRNRRIKKCPERFQDTKEQFDIIVTVEERVYDLVVMHMESMESVDNRPVHVLNVDVVDNAEDALMGAFVITDMINMMAKSTDLDNDIDELIQEFEERRKRVILHSVLFY | soluble
MAGISIGVGSTDYTDLVNKMVNLEGAAKTNQLATLEKTTTTRLTALGQFKSAISAFQTALTALNSNAVFMARTAKSSNEDILKASATQSAVAGTYQIQVNSLATSSKIALQAIADPANAKFNSGTLNISVGDTKLPAITVDSSNNTLAGMRDAINQAGKEAGVSATIITDNSGSRLVLSSTKTGDGKDIKVEVSDDGSGGNTSLSQLAFDPATAPKLSDGAAAGYVTKAANGEITVDGLKRSIASNSVSDVIDGVSFDVKAVTEAGKPITLTVSRDDAGVKDNVKKFVEAYNTLTKFINEQTVVTKVGEDKNPVTGALLGDASVRALVNTMRSELIASNENGSVRNLAALGITTTKDGTLEIDEKKLDKAISADFEGVASYFTGDTGLAKRLGDKMKPYTDAQGILDQRTTTLQKTLSNVDTQKADLAKRLAALQEKLTTQFNLLSAMQDEMTKRQKSITDNLASLPYGSGKKT | not soluble
MGSDKIHHHHHHMTKLDSFHLGELYRELRVARGLKMKDVVSDKLSQAQLSKFENGQTMLSADKLLTAISAIHMSFAEFEHAYYQYEDSSFFKQAKLISKYHSNKNIEGLEKLLIIHDNNSETYDVYDKLNKLVIRCAIHDLNPEYIISDDDKDFITTYLYSIEEWTEYELYIFGNTLQVLSDSDLIFLSKSFIERDSLYLSIPNNNFRTQLVVLNIIFVLLERKKDYCVHYFMKHLESILTYQDMFVKTVLIFLKKVLNYREGKGTHLIDLKKYIHDVEELGHEDVAEFLKDNIVNLL | not soluble
MGSDKIHHHHHHMTTHTKPGLRPANPNFSSGPCAKRPGWSVEALKNAALGRSHRAKIGKTKLEQAIELTREILQVPADHRIGIVPASDTGAVEMALWSLLGERGVDMVAWESFGSGWVTDVVKQLKLPDVRKLEAGYGELPDLAKIDFDRDVVFTWNGTTSGVRVPNGDFIPADRKGLTICDATSAAFAQRLDFEKLDVVTFSWQKVLGGEGAHGMLILSPRAVARLESYKPAWPLPKIFRLTSGGKLIEGIFKGETINTPSMLCVEDYLDALHWAKSIGGLDVLVARADANAAVLDGFVDKSSWLGHLAVQPATRSNTSVCLSFTDPDVAALDADGQATFAKGLVSALDKEGVAYDIGSYRDAPPGLRIWCGATVETSDLETLLPWLDWAFAAQKASLKAAA | not soluble
MPDQPLNQDGFPTASKGVEPDNLPDRVLVDGLKPKHQQLREILEEICTTQLQPGDMLPGERILEEKYGVSRITVRRAIGDLVASGRLKRARGKGTFVAHSPLISRLHLASFSAEMAAQKLSATSRILSSSRGPAPDDIADFFGTDRAAQHITLRRLRLGNGRPYAIDNGWYNSEFAPDLLENDVYNSVYSILDRVYGVPVTQAEQTVTAVAADEDTARLLDVTPGAPLLRILRQSLSGDKPVEWCVSLYRTDRYSLKTLVTRSEDL | soluble
TTQNELLNRIAELETKVAFQDNVIEELNQVLIHHQFVLDKLQTQVRHFANKFKNIQSSNVASQAEETPPPHY | not soluble
MSRFNPSPVSLSVTLGLMFSASAFAQDATKTDETMVVTAAGYAQVIQNAPASISVISREDLESRYYRDVTDALKSVPGVTVTGGGDTTDISIRGMGSNYTLILVDGKRQTSRQTRPNSDGPGIEQGWLPPLQAIERIEVIRGPMSTLYGSDAIGGVINIITRKDQQQWSGNVQLSTVVQENRASGDEQSANFFVTGPLSDALSLQVYGQTTQRDEDEIEHGYGDKSLRSLTSKLNYQLNPDHQLQLEAGVSAQDRENNVGKSAQSSGCRGTCSNTDNQYRRNHVAVSHQGDWQDVGQSDTYLQYEENTNKSREMSIDNTVFKSTLVAPIGEHMLSFGVEGKHESLEDKTSNKISSRTHISNTQWAGFIEDEWALAEQFRLTFGGRLDHDKNYGSHFSPRVYGVWNLDPLWTVKGGVSTGFRAPQLREVTPDWGQVSGGGNIYGNPDLKPETSINKELSLMYSTGSGLAASLTAFHNDFKDKITRVACPANICTAGPNQWGAAPTYRVNIDEAETYGAEATLSLPITESVELSSSYTYTHSEQKSGNFAGRPLLQLPKHLFNANLSWQTTDRLNSWANLNYRGKEMQPEGGASNDDFIAPSYTFIDTGVTYALTDTATIKAAVYNLFDQEVNYAEYGYVEDGRRYWLGLDIAF | not soluble
MQPLPDPKPNTQKEHHPVDRNFIAMIDDLKTTQIPWQKPGHIMTEDEQKMWNATRMREYRRKSNETLEKSKSMLDGLKSQCTVNTVVLKNMLITKSVEDSVKLNAARFLGKSEKELMDIPEIKQMFQQYWNCRKTASNSHYEQRSLIYLDRVVSLQTEYLNYKANRNDSRSPSQLVKKIKDATMKAEAYEFFMDDKRVRKVIGELNEIDSKFKENIGAWLLQQLKIDSSLSHLLST | not soluble
MGSDKIHHHHHHDDDNDYYRYALPNALVTVKPVADNSFFMQLDDSTTLLPVNMKNSPYGEKEVRALVNFDPVNESSGEYDKAVHINWIDSILTKPIAGDLGDKNDEVYGTDPVDMINDWVTIAEDGYLTLRFRTMWGNRSQAHFVNLLMSKDAENPYEVEFRHNAFGDVYGEPADGLVAFNLDSLPDTEGKTVKLKLKWKSFNGEKTAEFDYCTRKSTPANSAAITAGRSVLRLK | not soluble
SSSSLVEAAAGLPEKGLMVCKWLGTGSAGYGGYKASEYFFPIDNEEFRENLEDWESTLQSWEKLKNYLEGMHKGPVGNQTRTH | soluble
MAHHHHHHMVNTLLNYSESIQLGDELSNLLEFTREMNAYLRGTQVAESDVLREAHNSFAPTEFFVLHDETPDASDVYHFVSFVYKNGAVWELDGLQKGPILAADATDGNYKEKLVEVVQKRVIDKSAADNTGTGQGISFSLMAVVDDRLLQLEKEIEEAKAREEPTAYLAEQLEELRLQREKGRAENQRRRHNYVPMIVELLKALAEKGKLEGIVEEALAKKAASASSDRS | soluble
MGSDKIHHHHHHMHSDEEIFKETTPKALLQLLKKDYYFHDYCYQEIIPRGKEIKMNNSKGFQIYLVESGYFSYCLQNEYGDSGIISFVGGEIAINLIPIIKEEPEESVLRSLTEVHCWVLDPDFVERVLDESGQKAKYLLSNLLYTRKVYFKASKRNFMKKELRIRACLKELGLYMGRVTKEKEFILPDEINNSILAQYANTTREYTNIIVLKLRKEGILDDSHKPWVIKKIDIL | not soluble
MISAFDIFKIGIGPSSSHTVGPMNAGKCFIDRLIDSGDLPRTTRITVDLYGSLSLTGKGHATDTAVIMGLAGNTPQDVNIDSIPAFIQEVARSSRLSVAGGAHVVDFPVADSIFFHAETLARHENGMRITAWNGQAPLLHKTYYSIGGGFIVEEERFGQSHDVEKSVPYDFHSASELLTLCERQGLSVSGLMMQNELALRSKEQIDAGFARIWQVMATGIERGMNTEGVLPGPLNVPRRAVALRRLLVSSDNLSRDPMNVIDWINMFALAVSEENAAGGRVVTAPTNGACGIIPAVLAYYDKFRRPVNANSIARYLLSAGAIGMLYKMNASISGAEVGCQGEVGVACSMAAAGLTELLGGSPAQVCIAAEIAMEHNLGLTCDPVAGQVQIPCIERNAINAVKAVNAARMALRRTSEPRVSLDKVIETMYETGKDMNDKYRETSRGGLAIKVVCG | not soluble
MGSDKIHHHHHHMPRLLLVTNDFPPTVGGIQSYLRDFVALLPPEDVVVFASTQDPVAAREFDKSVPYKVVRYSSKLMLPTPQVKKLMVDLIKSEGVSTVWFGAAAPLAVMAPAARAAGAIQIISTTHGHEVGWSMVPGARSVLRFIGQHSDVVTYISDYTLRRFRRAFGEHPKFVHLPSGVDVERFYPVDEKQKFELRDQLGWAEKDKVIVCTSRLVPRKGQDTLIKAFPEIVQRCSEARLVIVGEGRIEGKLRRLAARDQKASSRISFEGRVSEEKMGMMLRGADVFAMPCRTRGGGLDVEGLGIVFLEAQACGVPVIAGDSGGAPETVTPASGVVVNGRDSSSVAHVIVDLVQQPAALMSMGHAGRQHVVDHWTWEIMGARLKSLIL | not soluble
MAHHHHHHMMRSSFVHKAAAAAAGGGMTATSSDHKMASLHKLLTGEVQFRNNALLKTCNIEHNFGATWKSDIEAYAKCLPADERSCLERQVARVMLTRYTTRELAEYCGEGPEHVDAVAREANIAQAKAHAQQYGADKLEAYVKAESKNAGWSEAETKSFLDAVKAAK | soluble
MDVQDLKPPKPLYLERVGFRGVRRRALLETPEGPVTLDLELDVFVDLDRSKRGVHLSRNIEAVEAVVSERRARSIEGLLRSIAKELLSRHGYAEKATVRARTRYYIDLEAAGVKGREPVDVAVTVSLTRSGGERWRVAVSVKGMTVCPSAQSTIAEAEGISDPSRAPSHSQKVLLKGTVDTGKVMVRIEDLARALLQSFSAPTFTLLKKPQEARLILEAFTRPMFVEDVVREAAWRIAAIPYIPGEALLQVEAVSLESIHPHDLVAMLRSRVSEVRSLASRSV | not soluble
MGSDKIHHHHHHMENQDYTVRLTVQASPQEVFKQINRVTAWWTKNLQGDSEKLNDVFTVNFPGMHVSTQKLIECIPDKKVTWMVTDSHLTFIQRKTEWTDTTIQFDISRNVKHTEVLFTHKGLNPAIECYGDCAKGWDYFIKGSLFKLLTEGTGTPE | not soluble
MFKGIVQGAGIIKKISKNDDTQRHGITFPKDILESVEKGTVMLVNGCSLTVVRISGDVVYFDIDQAINTTTFRELEVGNKVNLEVRPEFGSLLGKGALTGNIKGVATVDNITEEEDRLKVYIKIPKDLIENILSEDHIGINGVSHSIEEISDDIIFINYPKNLSITTNLGTLEKGSDVNVETLNVSNEWD | soluble
